Test results from US20240400703A1 (Genmab, published 2024).

Tests used:
[1] = molecular target: T1, human FcγRIa expressed on cells (human, UniProt P12314 16-374); experiment: flow cytometry, FcγRIa-transfected ExpiCHO-S cells, gMFI (PE)
T1 construct: whole, on cells; also called FcγR1a; CD64
Method: Data were analyzed using FlowJo software and were visualized using GraphPad Prism.

[2] = molecular target: T2, human OX40 with mouse CRD1 (human with mouse CRD1, UniProt P43489 29-277); experiment: flow cytometry, transfected ExpiCHO-S cells, MFI at 5 µg/mL as % of IgG1-CD134-A4453
T2 construct: on ExpiCHO-S cells; also called OX40-CRD1mm; Shuffle 1
T2 chain: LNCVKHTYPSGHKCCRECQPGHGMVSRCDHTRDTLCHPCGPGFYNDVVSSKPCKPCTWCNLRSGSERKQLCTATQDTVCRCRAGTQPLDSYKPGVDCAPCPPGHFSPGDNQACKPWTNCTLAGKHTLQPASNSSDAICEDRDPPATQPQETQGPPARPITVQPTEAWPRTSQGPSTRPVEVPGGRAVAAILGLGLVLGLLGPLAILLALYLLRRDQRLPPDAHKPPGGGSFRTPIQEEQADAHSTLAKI
Method: (§1) The four shuffle constructs, as well as wild-type human and mouse OX40 were transiently expressed on ExpiCHO-S cells using the ExpiFectamine™ CHO Transfection Kit (ThermoFisher, cat. no. A29131), according to the manufacturer's protocol. […] Next, cells were washed twice in FACS buffer 1, were resuspended in a 30 μL solution of viability marker ToPro-3 (Invitrogen, cat. no. T3605, diluted 1:10,000) in FACS buffer 1 supplemented with 2 mM EDTA, and were analyzed on an iQue Screener Plus (Intellicyt Corporation, USA). Data were analyzed using FlowJo software and visualized using GraphPad Prism.

[3] = molecular target: T3, human OX40 with mouse CRD3 (human with mouse CRD3, UniProt P43489 29-277); experiment: as above
T3 construct: on ExpiCHO-S cells; also called OX40-CRD3mm; Shuffle 3
T3 chain: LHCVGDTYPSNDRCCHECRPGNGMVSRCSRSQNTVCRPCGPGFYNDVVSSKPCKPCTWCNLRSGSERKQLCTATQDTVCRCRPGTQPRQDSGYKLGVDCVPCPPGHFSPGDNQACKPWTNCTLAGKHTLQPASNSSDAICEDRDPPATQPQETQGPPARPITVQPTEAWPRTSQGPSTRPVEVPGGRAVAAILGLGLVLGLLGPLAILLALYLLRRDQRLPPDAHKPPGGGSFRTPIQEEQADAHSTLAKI
Method: as §1

[4] = molecular target: T4, human OX40 with mouse CRD2 (human with mouse CRD2, UniProt P43489 29-277); experiment: as above
T4 construct: on ExpiCHO-S cells; also called OX40-CRD2mm; Shuffle 2
T4 chain: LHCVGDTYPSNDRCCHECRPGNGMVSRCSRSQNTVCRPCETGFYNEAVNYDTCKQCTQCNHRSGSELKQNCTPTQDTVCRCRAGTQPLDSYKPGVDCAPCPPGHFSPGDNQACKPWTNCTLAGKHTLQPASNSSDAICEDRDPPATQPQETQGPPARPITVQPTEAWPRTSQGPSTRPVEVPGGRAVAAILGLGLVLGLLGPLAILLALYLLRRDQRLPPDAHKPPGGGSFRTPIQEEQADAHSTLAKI
Method: as §1

[5] = molecular target: T5, recombinant cynomolgus monkey OX40 (Acro Biosystems, cat. no. OX0-C5220) (cynomolgus monkey (Macaca fascicularis), UniProt P43489 29-214 (human entry)); experiment: BLI, Ab on AHC sensor, OX40 analyte; * binding observed, less reliable fit
T5 construct: bought protein; also called Cyno OX40
T5 chain: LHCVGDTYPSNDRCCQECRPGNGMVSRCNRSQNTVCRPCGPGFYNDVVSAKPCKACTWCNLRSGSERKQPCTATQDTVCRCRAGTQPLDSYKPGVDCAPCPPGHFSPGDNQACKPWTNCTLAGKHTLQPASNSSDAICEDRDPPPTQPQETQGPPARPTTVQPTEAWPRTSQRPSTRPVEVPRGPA
Method: Experiments were carried out while shaking at 1,000 RPM at 30° C. […] Next, AHC sensors were loaded with antibody (1 μg/mL in Sample Diluent) for 600 s. After a baseline measurement in sample diluent (100 s), the association (200 s) and dissociation (1,000 s) of human OX40 (Acro Biosystems, cat. no. OX0-H5224), and cynomolgus monkey OX40 (Acro Biosystems, cat. no. OX0-C5220) was determined using a concentration range of 0.78 to 800 nM with 2-fold dilution steps.
The theoretical molecular masses of the antigens based on the amino acid sequences were used for calculations. For each antibody, a reference sensor was used which was incubated with Sample Diluent instead of antigen. AHC sensors were regenerated by exposure to 10 mM glycine buffer pH 1.7 for 5 s, followed by neutralization in Sample Diluent for 5 s; both steps were repeated twice. Subsequently sensors were loaded again with antibody for the next cycle of kinetic measurements.
Data were acquired using Data Acquisition Software v12.0 (Sartorius) and analyzed with Data Analysis Software v12.0 (Sartorius). Data traces were corrected per antibody by subtraction of the reference sensor. The Y-axis was aligned to the last 10 s of the baseline and Interstep Correction alignment to dissociation as well as Savitzky-Golay filtering were applied. Data traces with a response <0.05 nm were excluded from analysis. […] The data was fitted with the 1:1 model using a window of interest for the association of 200 s and dissociation times set at 50 s, 200 s and 1,000 s. The dissociation time was chosen based upon R² value, visual inspection of the curve and at least 5% signal decay during the dissociation step.

T1 sequence (P12314 16-374): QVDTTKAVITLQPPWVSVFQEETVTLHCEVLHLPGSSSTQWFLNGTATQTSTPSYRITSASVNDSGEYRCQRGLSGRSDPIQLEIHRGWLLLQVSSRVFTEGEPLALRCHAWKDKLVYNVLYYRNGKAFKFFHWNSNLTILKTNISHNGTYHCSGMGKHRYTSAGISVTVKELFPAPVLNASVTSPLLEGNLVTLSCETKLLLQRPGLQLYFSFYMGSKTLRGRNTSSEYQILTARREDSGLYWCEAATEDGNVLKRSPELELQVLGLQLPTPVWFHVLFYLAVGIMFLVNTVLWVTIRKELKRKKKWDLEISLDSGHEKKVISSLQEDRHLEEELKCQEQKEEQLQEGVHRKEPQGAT

B1: IgG1-CD134-003 (antibody)
heavy: not shown
light: AAVLTQTPSPVSAAVGGTVTIKCQSSQIVVNNNFLSWYQQKPGQPPKLLIYDASNLASGVPDRFSGSGSGTQFTLTISGVQSDDAATYYCLGGYDDDAENAFGGGTEVVVQRTVAAPSVFIFPPSDEQLKSGTASVVCLLNNFYPREAKVQWKVDNALQSGNSQESVTEQDSKDSTYSLSSTLTLSKADYEKHKVYACEVTHQGLSSPVTKSFNRGEC
notes: rabbit-human chimeric IgG1, wild-type Fc; also called parental chimeric antibody
[1]
  binding result: binds

B2: IgG1-CD134-003-HC6LC2-P329R-E345R (antibody)
heavy: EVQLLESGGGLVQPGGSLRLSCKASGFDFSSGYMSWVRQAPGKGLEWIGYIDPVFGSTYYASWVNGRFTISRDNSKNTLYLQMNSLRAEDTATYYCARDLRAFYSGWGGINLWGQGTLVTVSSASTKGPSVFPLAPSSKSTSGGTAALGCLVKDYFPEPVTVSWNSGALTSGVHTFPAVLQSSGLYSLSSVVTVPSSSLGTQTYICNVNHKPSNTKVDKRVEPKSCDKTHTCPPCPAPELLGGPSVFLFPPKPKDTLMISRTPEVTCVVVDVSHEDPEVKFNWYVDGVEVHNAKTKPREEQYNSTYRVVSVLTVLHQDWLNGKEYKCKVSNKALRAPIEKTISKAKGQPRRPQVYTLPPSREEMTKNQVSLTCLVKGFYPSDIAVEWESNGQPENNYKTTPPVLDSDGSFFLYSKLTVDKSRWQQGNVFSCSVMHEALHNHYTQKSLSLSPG
light: AAVLTQSPSSLSASVGDRVTITCQSSQIVVNNNFLSWYQQKPGKAPKLLIYDASNLASGVPDRFSGSGSGTDFTFTISSLQPEDIATYYCLGGYDDDAENAFGGGTKVEIKRTVAAPSVFIFPPSDEQLKSGTASVVCLLNNFYPREAKVQWKVDNALQSGNSQESVTEQDSKDSTYSLSSTLTLSKADYEKHKVYACEVTHQGLSSPVTKSFNRGEC
notes: humanized; human IgG1 with P329R and E345R (Eu numbering), kappa; also called IgG1-CD134-003-HC6LC2-RR
[2]
  binding result: no binding (tested: 5 µg/mL)
[3]
  binding result: binds
[4]
  binding result: binds

B3: IgG1-CD134-012 (antibody)
heavy: not shown
light: DIVMTQTPASVEAAVGGTVTIKCQASENIYSSLAWYQQKPGQPPKLLIYRTSTLASGVPSRFKGSGSGTQFTLTISDLESDDAATYYCQSYYHNSGGGYDYGFGGGTEVVAKRTVAAPSVFIFPPSDEQLKSGTASVVCLLNNFYPREAKVQWKVDNALQSGNSQESVTEQDSKDSTYSLSSTLTLSKADYEKHKVYACEVTHQGLSSPVTKSFNRGEC
notes: rabbit-human chimeric IgG1
[5]
  Kd: 180 nM
  koff: 0.018 s⁻¹
  kon: 98000 M⁻¹ s⁻¹
